Data on two molecules can be found in patent publication US20260193317A1, “COMBINATION THERAPY WITH ACTRIIB RECEPTOR VARIANTS AND GLP-1 AGONISTS” (35PHARMA Inc., priority 2023, published 2026).

For one data set, the target named is T1, BMP-9 (Homo sapiens, UniProt Q9UK05).
T1 sequence (Q9UK05 320-429): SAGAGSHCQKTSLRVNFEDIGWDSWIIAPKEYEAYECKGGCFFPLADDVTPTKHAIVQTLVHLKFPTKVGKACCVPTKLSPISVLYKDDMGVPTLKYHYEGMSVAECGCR
The experiment in a line: Small-scale BMP-9 ELISA with CHO supernatants. The conditions noted are these: BMP-9 10 ng/mL. In kind it is binding. As to the method:
Small-scale testing of ActRIIB-ECD fusion proteins. Additional investigation of a series of exemplary agents was performed using proteins expressed in CHO cells. Briefly, DNA encoding the ActRIIB-ECD-Fc fusion constructs was transfected in cells seeded in 12-well plates in a final volume of 1 ml. After 7 days, the supernatant was harvested, clarified, and the amount of expressed protein in each well was quantified using standard methods. The potency of each agent for inhibition of activin A, BMP-9 and BMP-10 was determined in three separate assays.
The next day, the plate was washed three times. […] Expressed proteins in the supernatants were diluted 1 in 2 in assay diluent (0.5% BSA, 0.05% tween-20 in PBS) and 100 μl was added to the 96-well plate in technical duplicates. After a 1.5-hour incubation at RT, the plate was washed three times. […] In this assay, a loss of signal indicates less binding of the exemplary agent to BMP-9. Results are expressed as a % of the signal obtained with wild-type ActRIIB-Fc (P75).

A further data set concerns TGFβ superfamily ligands. Put plainly: Neutralization profile across TGFβ superfamily ligands (HEK293 and HepG2 reporter assays, summary). In kind it is cell-based, human. Here is the method: Potency testing by neutralization on cell-based assays. Characterization of the activin A, activin B, GDF-8, and GDF-11 inhibition potency (IC50) of the fusion proteins was performed using a cell-based reporter assay. TGFβ-reporter HEK293 cells were obtained from InvivoGen (San Diego, CA, cat. no. hkb-tgfb) and were maintained following the manufacturer's instructions. Briefly, cells were grown in high-glucose DMEM, containing 10% heat-inactivated FBS, 30 μg/mL blasticidin, 250 μg/mL hygromycin B, and 100 μg/mL zeocin (hereafter, “growth medium”). Once the cells reached 70-80% confluence, they were detached in growth medium by gently tapping on the flask. For all assays, cells were seeded in 96-well plates at a density of 20,000 cells per well in growth medium. Cells were left to attach for 10 minutes at room temperature (RT) prior to being transferred to a 37° C. incubator (5% CO2) overnight. The next day, treatments were prepared by combining the appropriate concentration of agent with activin A, activin B, GDF-8, or GDF-11 for 30 min at RT (shaking at 150 rpm). Treatments were conducted in high-glucose DMEM (serum-free and with no selection agents), and the final concentration of cytokine (ligand) was 0.3 nM. Growth medium was removed from the culture plates, and cells were treated with the appropriate mixes of fusion protein and cytokine. Treatment duration was for 18-22 h at 37° C. (5% CO2). All treatments were performed in technical duplicates and at least one or two independent experiments were conducted for each cytokine. At the end of the treatment period, supernatants were transferred to a new plate, and centrifuged at 300 RPM for 3 min. Forty microlitres of supernatant from each condition was transferred to a new plate, into which 180 μL of Quanti-Blue reagent (InvivoGen, cat. no. rep-qbs) was added. Quanti-Blue reagent was prepared following the manufacturer's instructions. Samples were incubated for 45 min at 37° C. At the end of the incubation, absorbance was read at 650 nm. The data were plotted in GraphPad Prism, which was used to calculate IC50 values as a non-linear regression.
Characterization of the BMP-9 and BMP-10 inhibition potency (IC50) of the fusion proteins was performed using a second cell-based reporter assay. Human hepatic HepG2 cells were transfected with a SEAP-encoding plasmid, in which SEAP expression is under the control of the murine Id1 promoter. A stable pool was generated from this transfection. Cells were grown in EMEM, containing 10% heat-inactivated FBS and 200 μg/mL zeocin (hereafter, “HepG2 growth medium”). […] For all assays, cells were seeded in 96-well plates at a confluence of 100,000 cells per well in HepG2 growth medium. Cells were left to attach for 10 minutes at RT prior to being transferred to a 37° C. incubator (5% CO2) overnight. The next day, treatments were prepared in EMEM (2.5% heat-inactivated FBS and with no selection agents) by combining the appropriate concentration of agent with BMP-9 or BMP-10 for 30 min at RT (shaking at 150 rpm). Treatments were conducted in EMEM (2.5% heat-inactivated FBS and with no selection agents), and the final concentration of BMP-9 and BMP-10 was 2 ng/mL and 40 ng/mL, respectively. HepG2 growth medium was removed from the culture plates, and cells were treated with the appropriate mixes of fusion protein and cytokine. Treatment duration was for 20-24 h at 37° C. (5% CO2). […]
A general note: A reporter such as luciferase makes a cellular process visible.

The nature of data set [1]: SEC-HPLC monomer and HMW content of purified fusion proteins. In kind it is physicochemical. The conditions noted are these: after Protein A purification. An excerpt:
Given that protein aggregation can be indicative of reduced conformational stability and decreased activity, Size-Exclusion Chromatography-High Performance Liquid Chromatography (SEC-HPLC) was used to determine the purity of each ActRIIB-ECD construct. This method measured the percentage of intact monomeric species as well as the presence of aggregates and/or degradation products.
All proteins expressed efficiently in CHO and/or 293 cells and purification efficiency of each using Protein A affinity chromatography was similar.
A general note: Size exclusion chromatography separates by hydrodynamic size, large species first.

The next data set deals with T2, activin A (Homo sapiens, UniProt P08476).
T2 sequence (P08476 311-426): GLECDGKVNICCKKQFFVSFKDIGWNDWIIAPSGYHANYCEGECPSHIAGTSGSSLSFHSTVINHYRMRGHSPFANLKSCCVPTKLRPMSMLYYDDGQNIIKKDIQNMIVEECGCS
Put plainly: Potency testing by ELISA: activin A binding. Particulars: for ELISA potency Activin A, potency fold-change: relative to reference (P1372 = 1). An excerpt: Potency testing by ELISA. […] The next day, the plate was washed three times with buffer (Biolegend #421601).

Take “P1229: hActRIIB L33W, 14 aa linker, IgG1-DL Fc; SEQ ID 211”: the “BMP-9 binding, ELISA signal relative to P75” value in the data set with BMP-9 is “very low BMP-9 binding”. For the same molecule, the “improved potency on activin A, GDF-8, and GDF-11 relative to P75” value with TGFβ superfamily ligands was ~ 4 fold. In addition, in data set [1], the “high molecular weight (HMW) content (SEC-HPLC)” value is given as 3% and the “monomer content (SEC-HPLC)” value was 97%.

B1: P1372: hActRIIB L33W, 14 aa linker, IgG1 YTE-DL Fc; SEQ ID 231 (protein)
chain: ETRECIYYNANWELERTNQSGLERCEGEQDKRWHCYASWRNSSGTIELVKKGCWLDDFNCYDRQECVATEENPQVYFCCCEGNFCNERFTHLPEAGGPEVTYEPPPTGGGGSGGGGSGGGGTHTCPPCPAPELLGGPSVFLFPPKPKDTLYITREPEVTCVVVDVSHEDPEVKFNWYVDGVEVHNAKTKPREEQYNSTYRVVSVLTVLHQDWLNGKEYKCKVSNKALPAPIEKTISKAKGQPREPQVYTLPPSRDELTKNQVSLTCLVKGFYPSDIAVEWESNGQPENNYKTTPPVLDSDGSFFLYSKLTVDKSRWQQGNVFSCSVMHEALHNHYTQKSLSLSPG
With B1, the “BMP-9 binding, ELISA signal relative to P75” value with BMP-9 is given as “near-undetectable binding to BMP-9”. Moreover, the “ELISA potency Activin A, fold-change vs reference” value with activin A (D 0), in the data set with activin A (D 7 after storage at 2-8° C.) and in the data set with activin A (D 7 after storage at room temperature) was 1 (ref) each time. The “ELISA potency Activin A, potency fold-change” value with activin A (D 28, storage at 2-8° C.) is listed as 1 (ref) fold; with activin A (D 28, storage at room temperature), 1 (ref) fold. Also, the “impact of modifications in the Fc sequence on activin A, activin B, GDF-8, and GDF-11 potency” value in the data set on TGFβ superfamily ligands (all ligands) is “comparable to P1229”. In the data set with TGFβ superfamily ligands (both ligands), the “impact of modifications in the Fc sequence on BMP-9 and BMP-10 potency” value was “comparable to P1229”. For the same molecule, the “high molecular weight (HMW) content (SEC-HPLC)” value in data set [1] turned out to be 1%. In addition, in data set [1], the “monomer content (SEC-HPLC)” value is on record as 99%.
